{"source": "patent US20090136936A1", "data": [{"molecular_target": "PA-FITC (PA antigen of Bacillus anthracis) (Bacillus anthracis) (UniProt P13423)", "sequence (P13423 30-764 limits assumed)": "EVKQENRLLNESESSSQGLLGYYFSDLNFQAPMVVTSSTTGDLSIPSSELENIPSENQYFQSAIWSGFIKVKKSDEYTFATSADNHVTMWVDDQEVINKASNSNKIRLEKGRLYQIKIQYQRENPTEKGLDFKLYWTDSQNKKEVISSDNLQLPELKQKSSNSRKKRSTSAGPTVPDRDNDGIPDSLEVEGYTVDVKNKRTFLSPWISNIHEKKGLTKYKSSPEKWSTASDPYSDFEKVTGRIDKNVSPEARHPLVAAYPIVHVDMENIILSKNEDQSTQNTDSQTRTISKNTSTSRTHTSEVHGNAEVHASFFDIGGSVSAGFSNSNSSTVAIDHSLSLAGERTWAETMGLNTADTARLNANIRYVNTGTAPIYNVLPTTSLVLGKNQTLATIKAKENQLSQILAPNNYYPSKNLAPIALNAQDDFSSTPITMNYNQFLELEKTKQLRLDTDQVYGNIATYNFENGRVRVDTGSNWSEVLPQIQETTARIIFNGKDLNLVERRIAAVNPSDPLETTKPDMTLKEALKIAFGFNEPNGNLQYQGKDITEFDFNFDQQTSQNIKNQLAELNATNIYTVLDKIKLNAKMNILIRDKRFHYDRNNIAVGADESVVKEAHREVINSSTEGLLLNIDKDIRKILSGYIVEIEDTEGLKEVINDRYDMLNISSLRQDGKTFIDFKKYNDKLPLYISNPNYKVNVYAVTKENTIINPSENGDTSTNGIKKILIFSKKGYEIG", "values": [{"substance": "M18 scFv (PelB fused, anti-PA)", "Mn (mean fluorescence intensity)": 10.3}, {"substance": "PelB-M18scFv-Im2-FLAG", "Mn (mean fluorescence intensity)": 249}, {"substance": "26-10 scFv (anti-digoxin)", "Mn (mean fluorescence intensity)": 8.49}, {"substance": "PelB-2610scFv-Im2-FLAG", "Mn (mean fluorescence intensity)": 9.12}]}]}
